Test results reported in paper PMC3124363 (Nature chemical biology, 2011).
One block for each binder: values may come before it.

Target: GST-Cdk1/GST-cyclin B1 complex (UniProt P06493 1-297; P14635 1-433)
Assay: cell-based or functional assay

Sequence of GST-Cdk1/GST-cyclin B1 complex (P06493 whole entry, chain 1 of 2): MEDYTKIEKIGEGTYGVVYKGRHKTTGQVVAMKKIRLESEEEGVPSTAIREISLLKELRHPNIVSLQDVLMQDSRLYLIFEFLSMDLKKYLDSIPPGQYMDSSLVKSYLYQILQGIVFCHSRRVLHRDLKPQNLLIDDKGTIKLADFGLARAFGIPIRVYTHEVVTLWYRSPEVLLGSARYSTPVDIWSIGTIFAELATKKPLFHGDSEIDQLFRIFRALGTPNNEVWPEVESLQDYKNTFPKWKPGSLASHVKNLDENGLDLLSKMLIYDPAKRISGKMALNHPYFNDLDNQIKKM
Sequence of GST-Cdk1/GST-cyclin B1 complex (P14635 whole entry, chain 2 of 2): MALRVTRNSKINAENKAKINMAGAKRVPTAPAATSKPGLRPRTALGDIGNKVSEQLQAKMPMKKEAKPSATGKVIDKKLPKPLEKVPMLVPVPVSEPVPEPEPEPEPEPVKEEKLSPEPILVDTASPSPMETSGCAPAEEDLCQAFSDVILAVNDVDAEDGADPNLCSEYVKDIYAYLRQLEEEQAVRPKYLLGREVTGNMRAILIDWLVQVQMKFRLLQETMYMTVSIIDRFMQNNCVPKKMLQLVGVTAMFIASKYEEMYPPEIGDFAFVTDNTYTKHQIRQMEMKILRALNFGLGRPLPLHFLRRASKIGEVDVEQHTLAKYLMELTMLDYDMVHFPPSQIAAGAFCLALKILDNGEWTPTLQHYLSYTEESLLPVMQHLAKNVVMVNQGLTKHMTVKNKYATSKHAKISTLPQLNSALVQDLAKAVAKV

- IC50 of inhibition of Cdk1/cyclin B1 kinase activity in vitro (substrate Rb^C): 71 nM
B1: p21-KID-LH+3 (p21-KID with sub-domain LH lengthened by three residues) (domain or fragment, human, UniProt P38936 9-84, looked up)
chain: RQNPCGSKACRRLFGPVDSEQLSRDCDALMAGCIQEARERALRWNFDFVTETPLEGDFAWERVRGLGLPKLYLPTGPRR

- IC50 of inhibition of Cdk1/cyclin B1 kinase activity in vitro (substrate Rb^C): 218 nM
B2: p21-KID-LH−3 (p21-KID with sub-domain LH shortened by three residues) (domain or fragment, human, UniProt P38936 9-84, looked up)
chain: RQNPCGSKACRRLFGPVDSEQLSRDCDALMAGCIQEAWNFDFVTETPLEGDFAWERVRGLGLPKLYLPTGPRR
